Molecular target: GPR75-GFP10-11 modified protein complex (UniProt O95800 1-395; P42212 3-196 = GFP)
Assay: SPR; steady state affinity

B1: CCL5 ligand (ligand)
chain: SPYSSDTTPCCFAYIARPLPRAHIKEYFYTSGKCSNPAVVFVTRKNRQVCANPEKKWVREYINSLEMS
- Kd: 388 pM

Source: US20260209311A1 (published 2026)
